Results from patent EP0528847B1.

What was measured:
[1] = target: full-length human γ-interferon receptor, on cells (human) (UniProt P15260); test: ¹²⁵I-IFN-γ binding to COS7 cells transfected with plasmid T884-5, Expt. 1'
[2] = target: full-length human γ-interferon receptor, on cells (human) (UniProt P15260); test: ¹²⁵I-IFN-γ binding to COS7 cells transfected with plasmid T886-6, Expt. 3'
[3] = target: full-length human γ-interferon receptor, on cells (human) (UniProt P15260); test: ¹²⁵I-IFN-γ binding to COS7 cells transfected with plasmid T886-5, Expt. 2
[4] = target: full-length human γ-interferon receptor, on cells (human) (UniProt P15260); test: ¹²⁵I-IFN-γ binding to COS7 cells transfected with plasmid T884-5, Expt. 1
[5] = target: full-length human γ-interferon receptor, on cells (human) (UniProt P15260); test: ¹²⁵I-IFN-γ binding to COS7 cells transfected with plasmid T886-6, Expt. 3
[6] = target: full-length human γ-interferon receptor, on cells (human) (UniProt P15260); test: ¹²⁵I-IFN-γ binding to COS7 cells transfected with plasmid T886-5, Expt. 2'

UniProt P15260, sequence (P15260 18-489): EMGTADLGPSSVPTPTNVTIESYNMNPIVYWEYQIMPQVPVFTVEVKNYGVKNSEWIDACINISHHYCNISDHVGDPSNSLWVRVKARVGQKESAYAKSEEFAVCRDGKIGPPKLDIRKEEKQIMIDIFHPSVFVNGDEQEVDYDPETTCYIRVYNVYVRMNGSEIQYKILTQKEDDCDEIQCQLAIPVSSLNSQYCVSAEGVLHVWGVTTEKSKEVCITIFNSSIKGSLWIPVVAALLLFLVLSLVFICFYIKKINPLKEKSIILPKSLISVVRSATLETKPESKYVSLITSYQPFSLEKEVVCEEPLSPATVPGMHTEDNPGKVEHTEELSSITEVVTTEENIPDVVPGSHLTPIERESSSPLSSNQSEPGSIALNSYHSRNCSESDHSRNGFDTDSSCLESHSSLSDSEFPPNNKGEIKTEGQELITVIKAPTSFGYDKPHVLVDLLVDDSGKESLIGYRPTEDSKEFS

human γ-interferon (amino acids 4-137 of the mature protein), produced in E. coli 294 from plasmid pGIF4-137 (from UniProt P01579 4-137) (ligand)
Background Binding (1), ¹²⁵I IFN-γ cpm bound at 0.1 µg/ml unlabeled IFN-γ [1]: 1560 cpm | Background Binding (2), ¹²⁵I IFN-γ cpm bound at 10 µg/ml unlabeled IFN-γ [1]: 77.8 cpm | Specific Binding (3) = (1) - (2) [1]: 1480 cpm | Background Binding (1), ¹²⁵I IFN-γ cpm bound at 0.1 µg/ml unlabeled IFN-γ [2]: 2090 cpm | Background Binding (2), ¹²⁵I IFN-γ cpm bound at 10 µg/ml unlabeled IFN-γ [2]: 69.8 cpm | Specific Binding (3) = (1) - (2) [2]: 2020 cpm | Background Binding (1), ¹²⁵I IFN-γ cpm bound at 0.1 µg/ml unlabeled IFN-γ [3]: 1980 cpm | Background Binding (2), ¹²⁵I IFN-γ cpm bound at 10 µg/ml unlabeled IFN-γ [3]: 150 cpm | Specific Binding (3) = (1) - (2) [3]: 1830 cpm | Background Binding (1), ¹²⁵I IFN-γ cpm bound at 0.1 µg/ml unlabeled IFN-γ [4]: 1830 cpm | Background Binding (2), ¹²⁵I IFN-γ cpm bound at 10 µg/ml unlabeled IFN-γ [4]: 130 cpm | Specific Binding (3) = (1) - (2) [4]: 1700 cpm | Background Binding (1), ¹²⁵I IFN-γ cpm bound at 0.1 µg/ml unlabeled IFN-γ [5]: 2530 cpm | Background Binding (2), ¹²⁵I IFN-γ cpm bound at 10 µg/ml unlabeled IFN-γ [5]: 231 cpm | Specific Binding (3) = (1) - (2) [5]: 2300 cpm | Background Binding (1), ¹²⁵I IFN-γ cpm bound at 0.1 µg/ml unlabeled IFN-γ [6]: 2400 cpm | Background Binding (2), ¹²⁵I IFN-γ cpm bound at 10 µg/ml unlabeled IFN-γ [6]: 198 cpm | Specific Binding (3) = (1) - (2) [6]: 2210 cpm
